Source: paper PMC5352466 (Bioconjugate chemistry, 2017)

Assay: Pharmacokinetics study in mice after tail vein injection
Type: in vivo
Details: fasted CD1 mice, i.v. tail vein, 16 Qg/kg of insulin, 3-60 min, ELISA, n = 5

## insulin
  plasma concentration of insulin after injection: not detectable at any time point
